A short description of the series: self-splicing fitness, log relative to wild type (ln ratio); higher = more splicing; Tetrahymena group I intron in knt gene, E. coli kanamycin selection, DiMSum; sequences stand for … in CUCUCU…GGAGGGAAAAGUUAUCAGGCAUGCACCUGGUAGCUAGUCUUUAAACCAAUAGAUUGCAUCGGUUUAAAAGGCAAGACCGUCAAAUUGCGGGAAAGGGGUCAACAGCCGUUCAGUACCAAGUCUCAGGGGAAACUUUGAGAUGGCCUUGCAAAGGGUAUGGUAAUAAGCUGACGGACAUGGUCCUAACCACGCAGCCAAGUCCUAAGUCAACAGAUCUUCUGUUGAUAUGGAUGCAGUUCACAGACUAAAUGUCGGUCGGGGAAGAUGUAUUCUUCUCAUAAGAUAUAGUCGGACCUCUCCUUAAUGGGAGCUAGCGGAUGAAGUGAUGCAACACUGGAGCCGCUGGGAACUAAUUUGUAUGCGAAAGUAUAUUGAUUAGUUUUGGAGUACUCGUGGUCG
The essentials:
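A randomised library covering all eight P1ex-region intron nucleotides was built with the intron in the knt kanamycin-resistance gene on pET-22b(+) and held in E. coli BL21(DE3). Cells were grown overnight at 37°C or 30°C on LB agar, with or without 25 μg/mL kanamycin, plus 100 μg/mL carbenicillin, 50 μM IPTG and 0.2% rhamnose, and pooled colonies were amplicon-sequenced on an Illumina HiSeq 2500. DiMSum fitness is the error-weighted combination of wild-type-normalised replicate fold changes, kanamycin versus none.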

± gives the uncertainty stated by the source.

CGUAAGCAAUAUUACGGAGU: the “self-splicing fitness (ln)” value (30 °C) was -3.13 ± 0.17 and the “self-splicing fitness (ln)” value (37 °C) is -2.89 ± 0.19.
Consider CCGCAGCAAUAUUACGAACU, for which, under “30 °C”, the “self-splicing fitness (ln)” value was -1.92 ± 0.17.
Take GGUCAGCAAUAUUACGUAGC: the “self-splicing fitness (ln)” value is -0.572 ± 0.067 (30 °C) and -0.268 ± 0.081 (37 °C).
The corresponding values for CUAUAGCAAUAUUACGUUUU are -3.44 ± 0.16 and -2.61 ± 0.21.
With CUGUAGCAAUAUUACGGUGC, the “self-splicing fitness (ln)” value (30 °C) was -3.58 ± 0.2 and the “self-splicing fitness (ln)” value (37 °C) is -2.77 ± 0.19.
On to UUUGAGCAAUAUUACGCAAC, for which, under “37 °C”, the “self-splicing fitness (ln)” value was -1.71 ± 0.26.
In the case of UAGAAGCAAUAUUACGCGUC, the “self-splicing fitness (ln)” value is -2.53 ± 0.18 (30 °C) and -1.56 ± 0.18 (37 °C).
In the same order, the values of GGGUAGCAAUAUUACGGCCA are -0.214 ± 0.16 and -0.498 ± 0.24.
As for CCAGAGCAAUAUUACGAAGG, the “self-splicing fitness (ln)” value by setting is: (30 °C) -3.47 ± 0.19; (37 °C) -1.92 ± 0.22.
The corresponding values for CAGAAGCAAUAUUACGAGAC are -1.15 ± 0.3 and -1.38 ± 0.28.
As for GGGUAGCAAUAUUACGCUCA, the “self-splicing fitness (ln)” value was -0.291 ± 0.17 (30 °C) and -0.622 ± 0.26 (37 °C).
The corresponding values for UGCAAGCAAUAUUACGUAAA are -1.9 ± 0.087 and -1.01 ± 0.12.
ACUAAGCAAUAUUACGAGGG: the “self-splicing fitness (ln)” value runs as follows: (30 °C) -2.55 ± 0.17; (37 °C) -2.31 ± 0.24.
The corresponding values for CAUCAGCAAUAUUACGCUAC are -3.62 ± 0.27 and -3.33 ± 0.46.
With UCUCAGCAAUAUUACGUUCA, the “self-splicing fitness (ln)” value by setting is: (30 °C) -2.49 ± 0.14; (37 °C) -1.15 ± 0.14.
In the same order, the values of UCACAGCAAUAUUACGACUC are -3.43 ± 0.12 and -1.44 ± 0.13.
The corresponding values for GCGAAGCAAUAUUACGGUCG are -3.65 ± 0.32 and -2.77 ± 0.4.
As for ACUUAGCAAUAUUACGAUCG, the “self-splicing fitness (ln)” value is, setting by setting: (30 °C) -1.4 ± 0.11; (37 °C) -1.23 ± 0.14.
Take ACCGAGCAAUAUUACGUCCG: the “self-splicing fitness (ln)” value is, setting by setting: (30 °C) -4.36 ± 0.24; (37 °C) -1.5 ± 0.14.
In the same order, the values of AGCAAGCAAUAUUACGUCUU are -1.38 ± 0.068 and -0.234 ± 0.074.
Consider AACUAGCAAUAUUACGUAUA, for which the “self-splicing fitness (ln)” value is -2.05 ± 0.11 (30 °C) and -0.938 ± 0.12 (37 °C).
In the same order, the values of GGAGAGCAAUAUUACGAUCG are -1.88 ± 0.14 and -0.426 ± 0.16.
ACAAAGCAAUAUUACGAGUU: the “self-splicing fitness (ln)” value (30 °C) was -3.3 ± 0.099 and the “self-splicing fitness (ln)” value (37 °C) was -1.68 ± 0.096.
In the same order, the values of UGCAAGCAAUAUUACGAUAU are -3.42 ± 0.2 and -0.49 ± 0.1.
In the same order, the values of GUCGAGCAAUAUUACGCGAA are -1.39 ± 0.17 and 0.0361 ± 0.17.
The corresponding values for UUGCAGCAAUAUUACGCUUG are -3.08 ± 0.27 and -1.97 ± 0.29.
Consider AAAAAGCAAUAUUACGGUAA, for which the “self-splicing fitness (ln)” value reads like this: (30 °C) -1.31 ± 0.12; (37 °C) -0.53 ± 0.11.
For the sequence UGCGAGCAAUAUUACGCAGU, for the setting “37 °C”, the “self-splicing fitness (ln)” value is -4.06 ± 0.39.
With CGUCAGCAAUAUUACGUAGA, the “self-splicing fitness (ln)” value (30 °C) was -1.3 ± 0.069 and the “self-splicing fitness (ln)” value (37 °C) was -0.865 ± 0.1.
In the same order, the values of GUCCAGCAAUAUUACGUAGU are -0.119 ± 0.062 and 0.398 ± 0.08.
The corresponding values for ACAAAGCAAUAUUACGCACU are -0.0924 ± 0.069 and 0.264 ± 0.089.
As to AGGCAGCAAUAUUACGCGGC, the “self-splicing fitness (ln)” value by setting is: (30 °C) -3.85 ± 0.24; (37 °C) -2.39 ± 0.17.
Take UCAGAGCAAUAUUACGUGAG: the “self-splicing fitness (ln)” value runs as follows: (30 °C) -0.959 ± 0.054; (37 °C) -0.838 ± 0.081.
Turning to CGGAAGCAAUAUUACGCCCA, the “self-splicing fitness (ln)” value runs as follows: (30 °C) -0.0821 ± 0.13; (37 °C) 0.194 ± 0.2.
With UAAAAGCAAUAUUACGGUUC, the “self-splicing fitness (ln)” value was -3.1 ± 0.17 (30 °C) and -2.42 ± 0.2 (37 °C).
The corresponding values for AUUAAGCAAUAUUACGAAAA are -1.27 ± 0.16 and -1.5 ± 0.18.
In the same order, the values of CACCAGCAAUAUUACGCAUA are -2.57 ± 0.12 and -1.27 ± 0.1.
For AGAAAGCAAUAUUACGCUAG, the “self-splicing fitness (ln)” value (30 °C) is -3.32 ± 0.22 and the “self-splicing fitness (ln)” value (37 °C) is -2.65 ± 0.21.

Source of the values: the supplement of paper PMC7877785.
